From US20240018256A1 (JUNO THERAPEUTICS, published 2024)
One block for each binder: values may come before it.

Columns and labels:
[1] = target: T1, human CD19 (human, UniProt P15391 20-556); assay: flow cytometry on CD19-expressing cells (n = 1)
T1 sequence: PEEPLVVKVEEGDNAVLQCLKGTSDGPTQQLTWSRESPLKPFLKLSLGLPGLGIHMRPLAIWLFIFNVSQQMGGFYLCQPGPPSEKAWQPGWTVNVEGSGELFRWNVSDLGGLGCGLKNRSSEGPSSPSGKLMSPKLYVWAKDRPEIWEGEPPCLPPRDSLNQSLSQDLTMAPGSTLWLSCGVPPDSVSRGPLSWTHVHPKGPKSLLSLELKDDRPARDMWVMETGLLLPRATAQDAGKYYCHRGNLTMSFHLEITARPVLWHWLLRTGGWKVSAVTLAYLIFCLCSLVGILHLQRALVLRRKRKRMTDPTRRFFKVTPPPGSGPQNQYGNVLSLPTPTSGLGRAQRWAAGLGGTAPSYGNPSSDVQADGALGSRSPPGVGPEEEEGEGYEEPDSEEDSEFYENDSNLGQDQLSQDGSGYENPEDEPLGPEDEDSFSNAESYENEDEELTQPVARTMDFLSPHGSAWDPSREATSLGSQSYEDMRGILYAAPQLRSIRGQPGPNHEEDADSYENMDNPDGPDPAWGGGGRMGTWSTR
Text: (§1) Various clones were titrated and their binding affinity (EC50) to various CD19-expressing cells assessed by flow cytometry.

[2] = target: T1, human CD19; assay: flow cytometry competition for binding with FMC63
[3] = target: T1, human CD19; assay: flow cytometry on CD19-expressing cells (n = 5)
[4] = target: T1, human CD19; assay: flow cytometry on CD19-expressing cells, summary
[5] = target: T1, human CD19; assay: flow cytometry competition for binding with FMC63 (n = 2)
[6] = target: T1, human CD19; assay: flow cytometry, scFv titrated on CD19-expressing K562 cells (FIG. 3A)
[7] = target: T1, human CD19; assay: flow cytometry competition for binding with FMC63, summary (n = 2)
[8] = target: T1, human CD19; assay: flow cytometry, scFv titrated on CD19-expressing K562 cells (FIG. 4, one plate)
[9] = target: T1, human CD19; assay: flow cytometry on CD19-expressing cells (n = 4)
[10] = target: T1, human CD19; assay: flow cytometry competition for binding with FMC63 (n = 6)
[11] = target: T1, human CD19; assay: flow cytometry, in vitro-translated FLAG-tagged scFv on CD19-expressing vs mock transfected K562 cells (FIG. 8D)
[12] = target: T1, human CD19; assay: flow cytometry on CD19-expressing cells (n = 2)
[13] = target: T1, human CD19; assay: flow cytometry competition for binding with FMC63 (n = 3)
[14] = target: T1, human CD19; assay: flow cytometry on CD19-expressing cells, summary (n = 7)
[15] = target: T1, human CD19; assay: flow cytometry, scFv titrated on CD19-expressing K562 cells (FIG. 3B)
[16] = target: T1, human CD19; assay: flow cytometry competition for binding with FMC63, summary (n = 3)
Description: (§2) Competition binding assays were performed to assess competition of various antibodies for binding to CD19-expressing cells.

[17] = target: T1, human CD19; assay: flow cytometry competition with labeled FMC63 IgG on CD19-expressing cells (FIG. 5B)
Description: as §2

[18] = target: T1, human CD19; assay: flow cytometry, scFv titrated on CD19-expressing K562 cells (FIG. 4, another plate)
[19] = target: T1, human CD19; assay: flow cytometry on CD19-expressing cells (n = 7)
Text: as §1

[20] = target: T1, human CD19; assay: flow cytometry on CD19-expressing cells, summary (n = 5)
[21] = target: T1, human CD19; assay: flow cytometry competition for binding with FMC63, summary (n = 1)
[22] = target: T1, human CD19; assay: flow cytometry on CD19-expressing cells, summary (n = 1)
[23] = target: T1, human CD19; assay: flow cytometry competition for binding with FMC63 (n = 1)
[24] = target: T1, human CD19; assay: flow cytometry, scFv titrated on CD19-expressing K562 cells (FIG. 3C)
[25] = target: T1, human CD19; assay: flow cytometry on Ramos cells; probe concentration said to be about its EC50

B2: Clone 17 scFv (scFv)
scFv: EVQLVESGGGLVQPGRSLRLSCAASGFTFDDYAMHWVRQAPGKGLEWVSGISWNSGRIGYADSVKGRFTISRDNAKNSLFLQMNSLRAEDTAVYYCARDQGYHYYDSAEHAFDIWGQGTMVTVSSGGGGSGGGGSGGGGSQSALTQPASVSGSPGQSITIFCTGTSSDVGGYNYVSWYQQLPGTAPKLLIYSNNQRPSGVPDRFSGSKSGTSASLAISGLRSEDEADYYCAAWDDSLSVVFGGGTKLTVL
notes: Human scFv, VH-(G4S)3-VL
EC50 [3]: 11.6 nM | EC50 [4]: 11.7 nM | IC50 [5]: 35.4 nM | EC50 [6]: 14.9 nM | IC50 [7]: 35.4 nM | EC50 [8]: 8.32 nM

B3: Clone 488 scFv (scFv)
scFv: EVQLVQSGGGLVQPGRSLRLSCAASGFTFDDYAMHWVRQAPGKGLEWVSGISWNSGSIGYADSVKGRFTISRDNAKNSLYLQMNSLRAEDTAVYYCARDQGYHYYDSAEHAFDIWGQGTVVTVSSGGGGSGGGGSGGGGSEIVLTQSPATLSLSPGETATLSCRASQSINHYLAWYQQKPGQAPRLLIYDASNRATGIPARFSGSGSGTDFTLTISSLEPEDFATYYCQQSYSHPRMYTFGQGTKLDIK
notes: Human scFv
EC50 [9]: 2.9 nM | IC50 [10]: 6.1 nM

B6: Clone 18 scFv (scFv)
scFv: EVQLVESGGGLVQPGRSLRLSCAASGFTFDDYAMHWVRQAPGKGLEWVSGISWNSGRIGYADSVKGRFTISRDNAKNSLFLQMNSLRAEDTAVYYCARDQGYHYYDSAEHAFDIWGQGTVVTVSSGGGGSGGGGSGGGGSQSALTQPRSVSGFPGQSVTISCTGTTSDDVSWYQQHPGKAPQLMLYDVSKRPSGVPHRFSGSRSGRAASLIISGLQTEDEADYFCCSYAGRYNSVLFGGGTKLTVL
notes: Human scFv, VH-(G4S)3-VL
EC50 [14]: 4.1 nM | EC50 [6]: 3.79 nM | EC50 [15]: 7.1 nM | IC50 [16]: 20.1 nM | EC50 [8]: 4.79 nM | IC50 [17]: 24 nM | EC50 [18]: 3.11 nM

B7: Clone 18B scFv (scFv)
scFv: EVQLVESGGGLVQPGRSLRLSCAASGFTFDDYAMHWVRQAPGKGLEWVSGISWNSGRIGYADSVKGRFTISRDNAKNSLFLQMNSLRAEDTAVYYCARDQGYHYYDSAEHAFDIWGQGTVVTVSSGGGGSGGGGSGGGGSQSALTQPRSVSGFPGQSVTISCTGTTSDDVSWYQQHPGKAPQLMLYDVSKRPSGVPHRFSGSRSGRAASLIISGLQTEDEADYFCSSYAGRYNSVLFGGGTKLTVL
notes: Clone 18 with cysteine to serine at Kabat position 89 of VL; also called germline variant of clone 18
EC50 [19]: 4.9 nM | EC50 [20]: 5.4 nM | IC50 [13]: 32.9 nM | EC50 [15]: 9.3 nM | IC50 [21]: 28 nM

B8: Clone 5 scFv (scFv)
scFv: EVQLVESGGGLVQPGRSLRLSCAASGFTFDDYAMHWVRQAPGKGLEWVSGISWNSGRIGYADSVKGRFTISRDNAKNSLFLQMNSLRAEDTAVYYCARDQGYHYYDSAEHAFDIWGQGTMVTVSSGGGGSGGGGSGGGGSSYELTQDPAVSVALGQTVRITCQGDSLRSYYASWYQQKPGQAPVLVIYDKNNRPSGIPDRFSGSSSGNTASLTITGAQAEDEADYYCNSRDSSGNNWVFGGGTKLTVL
notes: Human scFv, VH-(G4S)3-VL
EC50 [1]: 15.8 nM | EC50 [22]: 15.8 nM | IC50 [23]: 50 nM | IC50 [21]: 50 nM | EC50 [8]: 15.8 nM

Further lines, results first:

EC50 [1]: 71.8 nM | IC50 [2]: > 200 nM
B1: Clone 835 scFv (scFv)
scFv: EVQLVESGGGLVQPGRSLRLSCAASGFTFDDYAMHWVRLAPGKGLEWVSGISWNSGRIGYADSVKGRFTISRDNAKNSLFLQMNSLRAKDTAVYYCARDQGYHYYDSAEHAFDIWGQGTMVTVSSGGGGSGGGGSGGGGSQSVLTQPRSVSGSPGQSVTISCTGPISGVGDYTSVSWYQHYPGKTPKLIIYDVTQRPSGVPNRFSGSKSGNTASLTISGLQADDEADYYCCSYEAPTHTYVFGTGTKLTVL
notes: Human scFv

binding result [11]: binds
B4: Clone 213 scFv (scFv)
scFv: QVQLVQSGGGVVQPGRSLRLSCAASGFTFDDYAMHWVRQAPGKGLEWVSGISWNSGSIGYADSVKGRFTISRDNAKNSLYLQMNSLRAEDTAVYYCARDQGYHYYDSAEHAFDIWGQGTVVTVSSGGGGSGGGGSGGGGSEIVLTQSPATLSLSPGETATLSCRASQSINHYLAWYQQKPGQAPRLLIYDASNRATGIPARFSGSGSGTDFTLTISSLEPEDFATYYCQQSYSHPRMYTFGQGTKLEIK

EC50 [12]: 5.2 nM | IC50 [13]: 14.6 nM
B5: Clone 241 scFv (scFv)
scFv: EVQLVQSGGGLVQPGRSLRLSCAASGFTFDDYAMHWVRQAPGKGLEWVSGISWNSGSIGYADSVKGRFTISRDNAKNSLYLQMNSLRAEDTAVYYCARDQGYHYYDSAEHAFDIWGQGTVVTVSSGGGGSGGGGSGGGGSAIRMTQSPSSLSASVGDRVTVTCQASQDISNYLNWYQQKPGRAPKLLIYDASNVKAGVPSRFSGGGSGTDFTLTISSLQPEDFATYYCQQSYSTPQAYTFGQGTKLDIK
notes: Human scFv

EC50 [3]: 7 nM | EC50 [4]: 8.04 nM | IC50 [5]: 18.2 nM | EC50 [15]: 7.9 nM | EC50 [24]: 8.8 nM | IC50 [7]: 18.2 nM
B9: Clone 76 scFv (scFv)
scFv: EVQLVESGGGLVQPGRSLRLSCAASGFTFDDYAMHWVRQAPGKGLEWVSGISWNSGRIGYADSVKGRFTISRDNAKNSLFLQMNSLRAEDTAVYYCARDQGYHYYDSAEHAFDIWGQGTVVTVSSGGGGSGGGGSGGGGSQSVLTQPPSVSAAPGQEVTISCSGSSSNIGNNYVSWYQQLPGTAPKLLIYDNDKRPSGIPDRFSGSKSGTSATLGITGLQTGDEADYYCGTWDGNLSAVFGGGTKVTVL
notes: Human scFv, VH-(G4S)3-VL

EC50 [25]: ~0.5 nM
B10: SJ25C1 IgG1 (antibody, V domains shown)
VH: EVKLQQSGAELVRPGSSVKISCKASGYAFSSYWMNWVKQRPGQGLEWIGQIYPGDGDTNYNGKFKGQATLTADKSSSTAYMQLSGLTSEDSAVYFCARKTISSVVDFYFDYWGQGTTVTVSS
VL: DIELTQSPKFMSTSVGDRVSVTCKASQNVGTNVAWYQQKPGQSPKPLIYSATYRNSGVPDRFTGSGSGTDFTLTITNVQSKDLADYFCQQYNRYPYTSGGGTKLEI
notes: Murine IgG1, FITC-labeled in the assay; also called FITC-labeled SJ25C1
